Consider two molecules from publication doi:10.1101/2025.08.25.672096 (bioRxiv, 2025).

This assay addresses T1, GST::KIF14(901-1648) (UniProt Q15058 901-1648).
T1 sequence (looked up): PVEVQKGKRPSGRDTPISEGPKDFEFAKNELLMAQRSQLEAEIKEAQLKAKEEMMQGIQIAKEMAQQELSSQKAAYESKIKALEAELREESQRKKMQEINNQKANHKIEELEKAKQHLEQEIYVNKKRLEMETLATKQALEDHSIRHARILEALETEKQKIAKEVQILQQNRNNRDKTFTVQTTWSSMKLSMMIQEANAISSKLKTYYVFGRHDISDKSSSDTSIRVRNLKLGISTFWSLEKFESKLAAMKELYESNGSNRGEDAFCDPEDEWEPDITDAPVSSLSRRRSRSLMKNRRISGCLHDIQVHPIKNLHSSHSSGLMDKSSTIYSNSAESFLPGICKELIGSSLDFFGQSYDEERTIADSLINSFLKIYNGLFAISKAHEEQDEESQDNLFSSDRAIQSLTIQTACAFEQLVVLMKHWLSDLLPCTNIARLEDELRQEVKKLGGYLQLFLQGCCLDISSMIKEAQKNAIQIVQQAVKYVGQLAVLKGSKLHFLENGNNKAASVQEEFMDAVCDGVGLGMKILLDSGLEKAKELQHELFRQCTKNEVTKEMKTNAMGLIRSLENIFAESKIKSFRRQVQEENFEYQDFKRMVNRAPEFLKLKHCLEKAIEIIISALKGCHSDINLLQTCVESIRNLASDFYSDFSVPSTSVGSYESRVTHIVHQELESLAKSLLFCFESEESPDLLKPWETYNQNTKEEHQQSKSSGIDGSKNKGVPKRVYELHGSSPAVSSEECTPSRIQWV
The experiment in a line: pull-down.

B1: MBP::CIT-K(420-585) (domain or fragment, human, UniProt O14578-4 420-585, looked up)
chain: SYSKALGILGRSESVVSGLDSPAKTSSMEKKLLIKSKELQDSQDKCHKMEQEMTRLHRRVSEVEAVLSQKEVELKASETQRSLLEQDLATYITECSSLKRSLEQARMEVSQEDDKALQLLHDIREQSRKLQEIKEQEYQAQVEEMRLMMNQLEEDLVSARRRSDLY
Take B1: the binding result is reported as “binds”.

B2: MBP::CIT-K(420-585) phosphorylated in vitro by CDK1-cyclin B (pS440) (domain or fragment, human, UniProt O14578-4 420-585, looked up)
chain: SYSKALGILGRSESVVSGLDSPAKTSSMEKKLLIKSKELQDSQDKCHKMEQEMTRLHRRVSEVEAVLSQKEVELKASETQRSLLEQDLATYITECSSLKRSLEQARMEVSQEDDKALQLLHDIREQSRKLQEIKEQEYQAQVEEMRLMMNQLEEDLVSARRRSDLY
modifications: phosphoserine at 440 (detected with the CIT-K pS440 antibody)
Consider B2, for which the binding result was “binds”.
